Assays:
[1] = target: human BNP(1-32) (human); assay: sandwich ELISA; capture L21016; BNP(1-32) 625 pg/ml; detection mAb 0.5 ug/ml
[2] = target: human proBNP(1-108), recombinant protein produced in E. coli (non-glycosylated) (human) (UniProt P16860); assay: sandwich ELISA; capture hinge 76; proBNP(1-108) 625 pg/ml; detection mAb-peroxidase 0.5 ug/ml
[3] = target: human BNP(1-32) (human); assay: sandwich ELISA; capture L21016; BNP(1-32) 156.25 pg/ml; detection mAb 0.5 ug/ml
[4] = target: human BNP(1-32) (human); assay: sandwich ELISA; capture L21016; BNP(1-32) 312.5 pg/ml; detection mAb 0.5 ug/ml
[5] = target: human proBNP(1-108), recombinant protein produced in E. coli (non-glycosylated) (human) (UniProt P16860); assay: sandwich ELISA; capture hinge 76; proBNP(1-108) 2,500 pg/ml; detection mAb-peroxidase 0.5 ug/ml
[6] = target: human BNP(1-32) (human); assay: sandwich ELISA; capture L21016; BNP(1-32) 2,500 pg/ml; detection mAb 0.5 ug/ml
[7] = target: human proBNP(1-108), recombinant protein produced in E. coli (non-glycosylated) (human) (UniProt P16860); assay: sandwich ELISA; capture hinge 76; proBNP(1-108) 156.25 pg/ml; detection mAb-peroxidase 0.5 ug/ml
[8] = target: human proBNP(1-108), recombinant protein produced in E. coli (non-glycosylated) (human) (UniProt P16860); assay: sandwich ELISA; capture hinge 76; proBNP(1-108) 10,000 pg/ml; detection mAb-peroxidase 0.5 ug/ml
[9] = target: human BNP(1-32) (human); assay: sandwich ELISA; capture L21016; BNP(1-32) 20 pg/ml; detection mAb 0.5 ug/ml
[10] = target: human proBNP(1-108), recombinant protein produced in E. coli (non-glycosylated) (human) (UniProt P16860); assay: sandwich ELISA; capture hinge 76; proBNP(1-108) 1,250 pg/ml; detection mAb-peroxidase 0.5 ug/ml
[11] = target: human proBNP(1-108), recombinant protein produced in E. coli (non-glycosylated) (human) (UniProt P16860); assay: sandwich ELISA; capture hinge 76; proBNP(1-108) 20 pg/ml; detection mAb-peroxidase 0.5 ug/ml
[12] = target: human BNP(1-32) (human); assay: sandwich ELISA; capture L21016; BNP(1-32) 0 pg/ml (blank); detection mAb 0.5 ug/ml
[13] = target: human BNP(1-32) (human); assay: sandwich ELISA; capture L21016; BNP(1-32) 39 pg/ml; detection mAb 0.5 ug/ml
[14] = target: human proBNP(1-108), recombinant protein produced in E. coli (non-glycosylated) (human) (UniProt P16860); assay: sandwich ELISA; capture hinge 76; proBNP(1-108) 312.5 pg/ml; detection mAb-peroxidase 0.5 ug/ml
[15] = target: human BNP(1-32) (human); assay: sandwich ELISA; capture L21016; BNP(1-32) 5,000 pg/ml; detection mAb 0.5 ug/ml
[16] = target: human BNP(1-32) (human); assay: sandwich ELISA; capture L21016; BNP(1-32) 1,250 pg/ml; detection mAb 0.5 ug/ml
[17] = target: human BNP(1-32) (human); assay: sandwich ELISA; capture L21016; BNP(1-32) 78 pg/ml; detection mAb 0.5 ug/ml
[18] = target: human proBNP(1-108), recombinant protein produced in E. coli (non-glycosylated) (human) (UniProt P16860); assay: sandwich ELISA; capture hinge 76; proBNP(1-108) 39 pg/ml; detection mAb-peroxidase 0.5 ug/ml
[19] = target: human proBNP(1-108), recombinant protein produced in E. coli (non-glycosylated) (human) (UniProt P16860); assay: sandwich ELISA; capture hinge 76; proBNP(1-108) 78 pg/ml; detection mAb-peroxidase 0.5 ug/ml
[20] = target: human proBNP(1-108), recombinant protein produced in E. coli (non-glycosylated) (human) (UniProt P16860); assay: sandwich ELISA; capture hinge 76; proBNP(1-108) 5,000 pg/ml; detection mAb-peroxidase 0.5 ug/ml
[21] = target: human BNP(1-32) (human); assay: sandwich ELISA; capture L21016; BNP(1-32) 10,000 pg/ml; detection mAb 0.5 ug/ml
[22] = target: human proBNP(1-108), recombinant protein produced in E. coli (non-glycosylated) (human) (UniProt P16860); assay: sandwich ELISA; capture hinge 76; proBNP(1-108) 0 pg/ml (blank); detection mAb-peroxidase 0.5 ug/ml

human BNP(1-32) (human), sequence (peptide, as listed by the source): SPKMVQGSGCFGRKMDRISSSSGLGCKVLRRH
human proBNP(1-108), recombinant protein produced in E. coli (non-glycosylated) (human), sequence (P16860 27-134): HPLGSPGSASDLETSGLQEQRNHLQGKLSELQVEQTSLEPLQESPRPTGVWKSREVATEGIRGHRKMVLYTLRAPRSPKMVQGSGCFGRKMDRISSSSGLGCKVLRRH

Substance	OD 490 nm [1] [OD]	OD [2] [OD]	OD 490 nm [3] [OD]	OD 490 nm [4] [OD]	OD [5] [OD]	OD 490 nm [6] [OD]	OD [7] [OD]	OD [8] [OD]	OD 490 nm [9] [OD]	OD [10] [OD]	OD [11] [OD]	OD 490 nm [12] [OD]	OD 490 nm [13] [OD]	OD [14] [OD]	OD 490 nm [15] [OD]	OD 490 nm [16] [OD]	OD 490 nm [17] [OD]	OD [18] [OD]	OD [19] [OD]	OD [20] [OD]	also measured
24C5 monoclonal antibody (HyTest, Turku, Finland)	0.059	0.07	0.071	0.063	0.069	0.067	0.055	0.22	0.068	0.068	0.052	0.071	0.055	0.035	0.068	0.056	0.052	0.056	0.056	0.117	OD 490 nm [21]: 0.077 OD; OD [22]: 0.044 OD
26E2 monoclonal antibody (HyTest, Turku, Finland)	0.029	0.024	0.032	0.027	0.031	0.035	0.027	0.158	0.034	0.024	0.028	0.022	0.032	0.028	0.041	0.031	0.055	0.028	0.033	0.041	OD 490 nm [21]: 0.048 OD; OD [22]: 0.024 OD

From patent publication US20200072853A1
